Measured values taken from patent US20080300206.

Molecular target: recombinant wild-type human alpha-synuclein

B1: G protein-coupled receptor kinase 6 (GRK6) (protein)
chain: MELENIVANTVLLKAREGGGGNRKGKSKKWRQMLQFPHISQCEELRLSLERDYHSLCERQPIGRLLFREFCATRPELSRCVAFLDGVAEYEVTPDDKRKACGRQLTQNFLSHTGPDLIPEVPRQLVTNCTQRLEQGPCKDLFQELTRLTHEYLSVAPFADYLDSIYFNRFLQWKWLERQPVTKNTFRQYRVLGKGGFGEVCACQVRATGKMYACKKLEKKRIKKRKGEAMALNEKQILEKVNSRFVVSLAYAYETKDALCLVLTLMNGGDLKFHIYHMGQAGFPEARAVFYAAEICCGLEDLHRERIVYRDLKPENILLDDHGHIRISDLGLAVHVPEGQTIKGRVGTVGYMAPEVVKNERYTFSPDWWALGCLLYEMIAGQSPFQQRKKKIKREEVERLVKEVPEEYSERFSPQARSLCSQLLCKDPAERLGCRGGSAREVKEHPLFKKLNFKRLGAGMLEPPFKPDPQAIYCKDVLDIEQFSTVKGVELEPTDQDFYQKFATGSVPIPWQNEMVETECFQELNVFGLDGSVPPDLDWKGQPPAPPKKGLLQRLFSRQDCCGNCSDSEEELPTRL
With B1 the “S129 phosphorylation in vitro, normalised by activity units” value was “The most prominent result came from GRK6”, the “S129 phosphorylation, immunoblot (11A5), kinase:AS 1:200 molar” value was “Prominent signals came from GRK6, CKI, CKII and PLK2” and the “S129 phosphorylation, immunoblot (11A5), rank of signal” value (“S129 phosphorylation … of signal” below) was “CKI>GRK6>PLK2>GRK4>GRK5>GRK2”. The “in vitro kinase reaction, phosphorylation of alpha-synuclein at serine 129” value (from here on “in vitro kinase reaction”) was “capable of phosphorylating alpha-synuclein specifically at serine 129 and did not phosphorylate serine 87 in vitro” and the “phospho ser-129 level in vitro, normalised for molarity” value was “roughly equivalent levels of phospho ser-129 between CKI, GRK6 and PLK2”.

B2: GRK2 (protein)
chain: MADLEAVLADVSYLMAMEKSKATPAARASKKILLPEPSIRSVMQKYLEDRGEVTFEKIFSQKLGYLLFRDFCLNHLEEARPLVEFYEEIKKYEKLETEEERVARSREIFDSYIMKELLACSHPFSKSATEHVQGHLGKKQVPPDLFQPYIEEICQNLRGDVFQKFIESDKFTRFCQWKNVELNIHLTMNDFSVHRIIGRGGFGEVYGCRKADTGKMYAMKCLDKKRIKMKQGETLALNERIMLSLVSTGDCPFIVCMSYAFHTPDKLSFILDLMNGGDLHYHLSQHGVFSEADMRFYAAEIILGLEHMHNRFVVYRDLKPANILLDEHGHVRISDLGLACDFSKKKPHASVGTHGYMAPEVLQKGVAYDSSADWFSLGCMLFKLLRGHSPFRQHKTKDKHEIDRMTLTMAVELPDSFSPELRSLLEGLLQRDVNRRLGCLGRGAQEVKESPFFRSLDWQMVFLQKYPPPLIPPRGEVNAADAFDIGSFDEEDTKGIKLLDSDQELYRNFPLTISERWQQEVAETVFDTINAETDRLEARKKAKNKQLGHEEDYALGKDCIMHGYMSKMGNPFLTQWQRRYFYLFPNRLEWRGEGEAPQSLLTMEEIQSVEETQIKERKCLLLKIRGGKQFILQCDSDPELVQWKKELRDAYREAQQLVQRVPKMKNKPRSPVVELSKVPLVQRGSANGL
For B2, the “S129 phosphorylation … of signal” value was “CKI>GRK6>PLK2>GRK4>GRK5>GRK2” and the “in vitro kinase reaction” value was “capable of phosphorylating alpha-synuclein specifically at serine 129 and did not phosphorylate serine 87 in vitro”.

B3: GRK4 (protein)
chain: MELENIVANSLLLKARQGGYGKKSGRSKKWKEILTLPPVSQCSELRHSIEKDYSSLCDKQPIGRRLFRQFCDTKPTLKRHIEFLDAVAEYEVADDEDRSDCGLSILDRFFNDKLAAPLPEIPPDVVTECRLGLKEENPSKKAFEECTRVAHNYLRGEPFEEYQESSYFSQFLQWKWLERQPVTKNTFRHYRVLGKGGFGEVCACQVRATGKMYACKKLQKKRIKKRKGEAMALNEKRILEKVQSRFVVSLAYAYETKDALCLVLTIMNGGDLKFHIYNLGNPGFDEQRAVFYAAELCCGLEDLQRERIVYRDLKPENILLDDRGHIRISDLGLATEIPEGQRVRGRVGTVGYMAPEVVNNEKYTFSPDWWGLGCLIYEMIQGHSPFKKYKEKVKWEEVDQRIKNDTEEYSEKFSEDAKSICRMLLTKNPSKRLGCRGEGAAGVKQHPVFKDINFRRLEANMLEPPFCPDPHAVYCKDVLDIEQFSVVKGIYLDTADEDFYARFATGCVSIPWQNEMIESGCFKDINKSESEEALPLDLDKNIHTPVSRPNRGFFYRLFRRGGCLTMVPSEKEVEPKQC
In the case of B3, the “S129 phosphorylation … of signal” value is reported as “CKI>GRK6>PLK2>GRK4>GRK5>GRK2”.

B4: GRK7 (protein)
chain: MVDMGALDNLIANTAYLQARKPSDCDSKELQRRRRSLALPGLQGCAELRQKLSLNFHSLCEQQPIGRRLFRDFLATVPTFRKAATFLEDVQNWELAEEGPTKDSALQGLVATCASAPAPGNPQPFLSQAVATKCQAATTEEERVAAVTLAKAEAMAFLQEQPFKDFVTSAFYDKFLQWKLFEMQPVSDKYFTEFRVLGKGGFGEVCAVQVKNTGKMYACKKLDKKRLKKKGGEKMALLEKEILEKVSSPFIVSLAYAFESKTHLCLVMSLMNGGDLKFHIYNVGTRGLDMSRVIFYSAQIACGMLHLHELGIVYRDMKPENVLLDDLGNCRLSDLGLAVEMKGGKPITQRAGTNGYMAPEILMEKVSYSYPVDWFAMGCSIYEMVAGRTPFKDYKEKVSKEDLKQRTLQDEVKFQHDNFTEEAKDICRLFLAKKPEQRLGSREKSDDPRKHHFFKTINFPRLEAGLIEPPFVPDPSVVYAKDIAEIDDFSEVRGVEFDDKDKQFFKNFATGAVPIAWQEEIIETGLFEELNDPNRPTGCEEGNSSKSGVCLLL
B4 was tested, and the “S129 phosphorylation, immunoblot (11A5)” value was “Prominent signals came from all GRKs except for GRK7”, the “in vitro kinase reaction” value was “capable of phosphorylating alpha-synuclein specifically at serine 129 and did not phosphorylate serine 87 in vitro” and the “phosphorylation of AS in vitro” value was “GRK 7 was not able to phosphorylate at appreciable levels”.

B5: PLK3 (protein)
chain: MEPAAGFLSPRPFQRAAAAPAPPAGPGPPPSALRGPELEMLAGLPTSDPGRLITDPRSGRTYLKGRLLGKGGFARCYEATDTETGSAYAVKVIPQSRVAKPHQREKILNEIELHRDLQHRHIVRFSHHFEDADNIYIFLELCSRKSLAHIWKARHTLLEPEVRYYLRQILSGLKYLHQRGILHRDLKLGNFFITENMELKVGDFGLAARLEPPEQRKKTICGTPNYVAPEVLLRQGHGPEADVWSLGCVMYTLLCGSPPFETADLKETYRCIKQVHYTLPASLSLPARQLLAAILRASPRDRPSIDQILRHDFFTKGYTPDRLPISSCVTVPDLTPPNPARSLFAKVTKSLFGRKKKSKNHAQERDEVSGLVSGLMRTSVGHQDARPEAPAASGPAPVSLVETAPEDSSPRGTLASSGDGFEEGLTVATVVESALCALRNCIAFMPPAEQNPAPLAQPEPLVWVSKWVDYSNKFGFGYQLSSRRVAVLFNDGTHMALSANRKTVHYNPTSTKHFSFSVGAVPRALQPQLGILRYFASYMEQHLMKGGDLPSVEEVEVPAPPLLLQWVKTDQALLMLFSDGTVQVNFYGDHTKLILSGWEPLLVTFVARNRSACTYLASHLRQLGCSPDLRQRLRYALRLLRDRSPA
In the case of B5, the Fold Change in Percent Synuclein Phosphorylation, HEK-293 overexpression is reported as 39.6 fold, the “Proportion of total synuclein that is phoshorylated at ser-129, HEK-293 overexpression, ELISA” value is reported as 79.2% and the “in vitro biochemical assay, phosphorylation of synuclein” value is reported as “PLK2 and PLK3 having extremely robust phosphorylation of synuclein”.
